Source: patent US20160331662A1 (UAB RESEARCH FOUNDATION, published 2016)

What was measured:
[1] = molecular target: the molecule itself; experiment: SPR, analyte over immobilized iSRCR123; quantity and unit not printed beside the number, told as 'nanomolar affinities'
[2] = molecular target: T1, FL^SspB (S. gordonii DL1 SspB, residues 39-1433) (Streptococcus gordonii DL1, UniProt P16952 39-1433); experiment: SPR, analyte over ligand immobilized on CM5 chip, 1:1 Langmuir model
T1 construct: range 39-1433
T1 sequence: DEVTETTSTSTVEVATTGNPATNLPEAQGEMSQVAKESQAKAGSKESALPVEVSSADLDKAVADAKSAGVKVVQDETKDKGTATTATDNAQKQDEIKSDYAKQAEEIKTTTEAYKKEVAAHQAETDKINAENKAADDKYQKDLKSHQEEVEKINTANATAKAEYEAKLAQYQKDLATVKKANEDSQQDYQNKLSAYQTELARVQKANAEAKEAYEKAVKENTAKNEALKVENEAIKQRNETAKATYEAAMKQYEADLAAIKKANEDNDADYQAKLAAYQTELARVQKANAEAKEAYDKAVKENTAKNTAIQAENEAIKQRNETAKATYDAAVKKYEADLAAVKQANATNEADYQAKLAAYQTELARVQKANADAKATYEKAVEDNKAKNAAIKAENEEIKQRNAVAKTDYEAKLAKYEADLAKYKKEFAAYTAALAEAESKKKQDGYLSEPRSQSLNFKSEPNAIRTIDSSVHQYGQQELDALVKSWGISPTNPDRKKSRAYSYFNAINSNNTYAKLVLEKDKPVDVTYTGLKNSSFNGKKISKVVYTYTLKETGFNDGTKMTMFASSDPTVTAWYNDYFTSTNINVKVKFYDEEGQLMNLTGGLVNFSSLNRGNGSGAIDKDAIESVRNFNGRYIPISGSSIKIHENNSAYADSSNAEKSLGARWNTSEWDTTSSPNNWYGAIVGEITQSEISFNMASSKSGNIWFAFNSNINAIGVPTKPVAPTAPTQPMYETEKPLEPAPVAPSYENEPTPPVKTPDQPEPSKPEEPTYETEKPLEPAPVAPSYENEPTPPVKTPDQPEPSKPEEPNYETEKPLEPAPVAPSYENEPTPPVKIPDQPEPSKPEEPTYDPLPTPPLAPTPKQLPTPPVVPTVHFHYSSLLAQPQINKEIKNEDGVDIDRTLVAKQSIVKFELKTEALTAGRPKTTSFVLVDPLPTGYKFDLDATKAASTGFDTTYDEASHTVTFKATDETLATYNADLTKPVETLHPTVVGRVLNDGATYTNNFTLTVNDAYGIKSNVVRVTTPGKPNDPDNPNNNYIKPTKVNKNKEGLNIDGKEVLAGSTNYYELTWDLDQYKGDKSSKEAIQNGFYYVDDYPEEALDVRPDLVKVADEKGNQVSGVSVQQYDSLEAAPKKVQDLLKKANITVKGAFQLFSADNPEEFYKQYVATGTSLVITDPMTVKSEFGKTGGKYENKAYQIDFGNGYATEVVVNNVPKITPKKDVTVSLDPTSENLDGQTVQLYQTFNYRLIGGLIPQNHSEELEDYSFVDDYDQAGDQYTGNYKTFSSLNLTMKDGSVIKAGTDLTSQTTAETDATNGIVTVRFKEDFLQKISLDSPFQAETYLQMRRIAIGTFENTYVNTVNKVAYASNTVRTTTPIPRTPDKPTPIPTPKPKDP

[3] = molecular target: T2, FL^AgI/II (S. mutans UA159 Antigen I/II, full length recombinant construct) (Streptococcus mutans UA159, UniProt P23504 39-1562); experiment: as above
T2 construct: also called CG14

[4] = molecular target: T3, A3VP1^AgI/II (Streptococcus mutans UA159, UniProt P23504 386-874); experiment: as above
T3 construct: domain: A3VP1; also called A3VP1 of AgI/II
T3 sequence: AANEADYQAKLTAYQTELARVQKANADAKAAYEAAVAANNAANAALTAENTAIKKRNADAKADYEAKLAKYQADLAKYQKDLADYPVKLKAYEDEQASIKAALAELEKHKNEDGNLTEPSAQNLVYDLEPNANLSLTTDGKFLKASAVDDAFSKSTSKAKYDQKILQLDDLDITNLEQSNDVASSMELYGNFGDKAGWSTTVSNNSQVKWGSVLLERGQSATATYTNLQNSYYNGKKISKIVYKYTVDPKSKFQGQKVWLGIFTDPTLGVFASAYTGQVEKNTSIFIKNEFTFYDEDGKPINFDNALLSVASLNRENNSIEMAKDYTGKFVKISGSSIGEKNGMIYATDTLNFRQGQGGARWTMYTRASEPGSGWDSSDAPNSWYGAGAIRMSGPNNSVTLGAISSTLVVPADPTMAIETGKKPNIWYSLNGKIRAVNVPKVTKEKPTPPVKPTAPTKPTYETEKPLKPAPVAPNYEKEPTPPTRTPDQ

[5] = molecular target: T4, C123^AgI/II (Streptococcus mutans UA159, UniProt P23504 1000-1486); experiment: as above
T4 construct: domain: C123
T4 sequence: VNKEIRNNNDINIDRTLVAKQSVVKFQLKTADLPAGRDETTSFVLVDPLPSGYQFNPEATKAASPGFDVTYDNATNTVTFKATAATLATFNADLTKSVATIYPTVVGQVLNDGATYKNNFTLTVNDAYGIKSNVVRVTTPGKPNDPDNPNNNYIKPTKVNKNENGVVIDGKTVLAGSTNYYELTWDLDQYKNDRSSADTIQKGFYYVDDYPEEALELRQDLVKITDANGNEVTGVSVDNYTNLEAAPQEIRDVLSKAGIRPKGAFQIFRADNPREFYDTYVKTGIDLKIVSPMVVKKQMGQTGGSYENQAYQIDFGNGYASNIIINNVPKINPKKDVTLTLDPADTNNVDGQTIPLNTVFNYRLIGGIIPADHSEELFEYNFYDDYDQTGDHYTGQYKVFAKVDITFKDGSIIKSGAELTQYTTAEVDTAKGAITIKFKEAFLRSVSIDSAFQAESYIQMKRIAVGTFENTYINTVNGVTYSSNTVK

T2 sequence (P23504 39-1562): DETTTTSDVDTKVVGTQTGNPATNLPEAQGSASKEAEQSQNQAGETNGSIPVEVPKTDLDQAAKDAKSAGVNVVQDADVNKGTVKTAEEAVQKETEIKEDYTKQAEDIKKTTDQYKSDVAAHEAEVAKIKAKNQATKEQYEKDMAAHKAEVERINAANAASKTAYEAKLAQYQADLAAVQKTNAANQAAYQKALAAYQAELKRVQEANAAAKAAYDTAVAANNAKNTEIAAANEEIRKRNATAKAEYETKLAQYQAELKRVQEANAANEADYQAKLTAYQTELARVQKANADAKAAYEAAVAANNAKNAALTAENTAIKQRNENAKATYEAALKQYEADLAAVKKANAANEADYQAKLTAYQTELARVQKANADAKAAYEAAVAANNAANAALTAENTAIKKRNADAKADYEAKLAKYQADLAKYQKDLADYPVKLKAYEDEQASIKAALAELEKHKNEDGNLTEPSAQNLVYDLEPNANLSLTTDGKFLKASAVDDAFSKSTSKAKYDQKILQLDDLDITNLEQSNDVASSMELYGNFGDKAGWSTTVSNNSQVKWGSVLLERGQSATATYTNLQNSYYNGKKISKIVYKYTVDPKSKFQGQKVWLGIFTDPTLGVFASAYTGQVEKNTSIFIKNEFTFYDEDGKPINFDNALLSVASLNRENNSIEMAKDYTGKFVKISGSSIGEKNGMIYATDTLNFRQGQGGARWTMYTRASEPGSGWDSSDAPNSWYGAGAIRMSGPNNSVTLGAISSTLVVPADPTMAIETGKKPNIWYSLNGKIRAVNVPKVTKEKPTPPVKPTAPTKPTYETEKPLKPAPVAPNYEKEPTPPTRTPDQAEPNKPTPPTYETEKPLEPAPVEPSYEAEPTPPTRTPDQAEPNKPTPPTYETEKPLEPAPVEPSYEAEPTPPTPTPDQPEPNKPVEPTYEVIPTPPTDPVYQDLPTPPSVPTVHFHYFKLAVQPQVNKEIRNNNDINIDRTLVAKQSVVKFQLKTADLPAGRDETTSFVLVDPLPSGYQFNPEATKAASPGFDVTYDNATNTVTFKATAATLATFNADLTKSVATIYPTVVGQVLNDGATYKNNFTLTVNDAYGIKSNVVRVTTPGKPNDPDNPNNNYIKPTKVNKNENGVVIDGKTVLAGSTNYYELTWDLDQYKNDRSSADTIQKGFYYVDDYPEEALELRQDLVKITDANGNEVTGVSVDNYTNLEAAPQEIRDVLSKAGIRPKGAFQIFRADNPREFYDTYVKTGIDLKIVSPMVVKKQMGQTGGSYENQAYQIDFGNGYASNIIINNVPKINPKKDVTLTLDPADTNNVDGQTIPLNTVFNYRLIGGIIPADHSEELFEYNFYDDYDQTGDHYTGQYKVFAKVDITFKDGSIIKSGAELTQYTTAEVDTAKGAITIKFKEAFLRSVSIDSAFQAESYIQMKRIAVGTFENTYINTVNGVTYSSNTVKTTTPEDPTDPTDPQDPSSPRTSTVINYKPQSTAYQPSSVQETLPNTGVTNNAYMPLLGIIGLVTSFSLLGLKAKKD

B1: iSRCR123 (receptor, not shown: small tags and cut ends)
chain: not shown
notes: domain: SRCR123; also called SRCRs; iSRCRs
- Kd [1]: 6.72 nM
- Ka [2]: 2.38e+07 M⁻¹
- Kd [2]: 42.1 nM
- koff [2]: 0.000759 s⁻¹
- kon [2]: 18200 M⁻¹ s⁻¹
- Ka [3]: 1.34e+08 M⁻¹
- Kd [3]: 7.46 nM
- koff [3]: 0.000743 s⁻¹
- kon [3]: 99700 M⁻¹ s⁻¹
- Ka [4]: 7.98e+06 M⁻¹
- Kd [4]: 125 nM
- koff [4]: 0.00249 s⁻¹
- kon [4]: 19900 M⁻¹ s⁻¹
- Ka [5]: 1.15e+07 M⁻¹
- Kd [5]: 87 nM
- koff [5]: 0.000721 s⁻¹
- kon [5]: 8290 M⁻¹ s⁻¹
